Experimental data reported in article PMC4672726.

Biological target: hemagglutinin (HA)–tagged FERONIA (FER-HA) (Arabidopsis thaliana) (UniProt Q9SCZ4)
Test: co-IP

Chain of hemagglutinin (HA)–tagged FERONIA (FER-HA) (Arabidopsis thaliana) (Q9SCZ4 28-895): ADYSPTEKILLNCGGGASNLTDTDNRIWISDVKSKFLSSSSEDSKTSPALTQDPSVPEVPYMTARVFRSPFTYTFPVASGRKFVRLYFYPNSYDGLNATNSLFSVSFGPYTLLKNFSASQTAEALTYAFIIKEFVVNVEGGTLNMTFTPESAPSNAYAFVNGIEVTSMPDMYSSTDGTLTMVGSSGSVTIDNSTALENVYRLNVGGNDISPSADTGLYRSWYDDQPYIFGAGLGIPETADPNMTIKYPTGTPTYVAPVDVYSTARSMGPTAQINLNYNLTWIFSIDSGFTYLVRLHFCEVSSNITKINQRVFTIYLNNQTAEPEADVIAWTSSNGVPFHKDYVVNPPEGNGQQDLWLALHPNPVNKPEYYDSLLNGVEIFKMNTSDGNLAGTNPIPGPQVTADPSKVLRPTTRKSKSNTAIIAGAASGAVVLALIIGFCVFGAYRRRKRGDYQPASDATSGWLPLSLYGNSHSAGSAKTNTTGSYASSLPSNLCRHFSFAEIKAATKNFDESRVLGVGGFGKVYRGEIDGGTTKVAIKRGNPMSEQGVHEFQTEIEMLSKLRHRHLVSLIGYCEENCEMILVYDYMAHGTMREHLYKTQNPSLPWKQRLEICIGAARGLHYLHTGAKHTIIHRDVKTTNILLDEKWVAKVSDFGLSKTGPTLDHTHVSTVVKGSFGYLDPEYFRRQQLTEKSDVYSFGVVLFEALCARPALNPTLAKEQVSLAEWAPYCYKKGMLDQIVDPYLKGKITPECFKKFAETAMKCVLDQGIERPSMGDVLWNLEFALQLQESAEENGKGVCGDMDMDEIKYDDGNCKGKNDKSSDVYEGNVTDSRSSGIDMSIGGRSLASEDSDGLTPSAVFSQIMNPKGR

“HisRALF (RALF, rapid alkalinization factor, N-terminal 6×His fusion peptide) (from UniProt Q9SRY3 72-120)” showed a fold binding over the inactive analog HisRALF(Δ2–8) of 4.5 to 6 fold.
